In the DeepSol protein solubility set:

Assay: soluble on expression in E. coli; label from the status in PepcDB or PDB records

| Sequence | soluble on expression in E. coli |
| --- | --- |
| LHPDKCRAPHATEAFKALGNAYAVLSDTDKRRQYDQYGAEAANSHTPTTRRRGGGHGAFFEHDYAHGFEAEFTPEEIFNMFFGGGFPTEQVRRRARYAQQQQYHHYEQQQSPYGPLLQLLPLIAIMVIGLLAQLMVGEPAYSLHQTSKFTIKRLTADLRVPYFVRTDFETSYRGRIRQVEQQVEDDYIQNLRMNCYKEQNLKETKLYRARWMRDEAMMRDAERTPLPSCIRLNEIYSH | not soluble |
| LIIFVFGYYLAFNQNKYVSYNDETKQFVHTDTSKIMENLVNRQQGIYYFGFPTCPWCLELLPILDKELEKESMNAYAVNTRGDDYTENDDELLQKFYQKYTGDESLSVPFIVAINNKKEVQVHIGTVKNHDATKTKLKRRQKE | not soluble |
| LKIKMPDDIFVKKELILKDVIKGQIGYMYLPSMSSKNGSINNDLKIIGDYINTLEKHKALIIDIRGNLGGSDRYWQGIVSKLIKNDVKINGYRIYRNNNEIVKKYTNARNIKLNPVENLPASVKENAPKEIIKDFNDFEDTSYTIKSTDDSKFKGNIYLLVDRKIYSSSESFAMFCKENKFATLVGETTGGDGGCIDPVLFNLKNSGLIVRMASCMYLNKNGICDEEFKTIPEFKVKDCKRTADFKDDNCIRKALELENINY | not soluble |
| LKMTKVMVSEAGASVYSASELAAKEFPDLDVSIRGAVSIARRLQDPLAELVKIDPKSIGVGQYQHDVSQLKLARGLDAVVEDCVNAVGVDVNTASVALLARISGLNTTLAQNIVAHRDENGAFKTRAALKKVSRLGEKTFEQAAGFLRVMTGDNPLDSSAVHPEAYPLVQRIAAETDRDIRSLIGDASFLKRLDPKKFTDETF | not soluble |
| LPELSLEELIRMHDHICFLKSLGYTDYQKHLKKSKVLIVGLGKLGANIAYNLCNVGVGSVILFDRTFISPTEISDIYTKDAIGMKKADYLRKKLTSIFPEIEVQNLPDTINISNYLNDSDFDIIIVNSEHFNIKLLSELNDLLYKISTPYMYAWIEGSRGYIGPLIYPPDTSCFNCYLTWRFFGTFMEDKIKAINNYGSSGYIFPLDKIIGALTVLEVCKAIGSLGTPLFNKIILVEVLPTLTIRYIPILKDPKCNVCEG | not soluble |
| LPVTDNHIHVDDKHGYGAEKVAKTFYNAGGKVMIVLNKPTFDGNLTASMDILVRDVEIINKNTPVKAFGLVGVHPAELTYLMKFMSLEEAKQRIVDALNYAKKLVEEYDFIVGIGEVGRPHYPVSEDVWKASNEILKYCMELAKDIGCAIQIHAESSTEEQFKEFSEMAKEVGLNPEKVVKHHCGNMVLEGERYGIFPSILASRVNEDVVKKSLRFVMETDYIDDLKRPGVALGIKTVPRVTRRLIEKGVLDEEGVYKIHKENIERIYDM | not soluble |
| LPYPIPIALTDALDRSVSAELVAVLVAVTQGEPRVLTTEDARALPAGPFELAHRSLQAGLRAWVETQTHHPLGYVEQLYTFADSDRSNEAGARVISVSYLGLTREAGATGVAQVGWQHWYRYFPWEDWRAGRPAIIADEIAPRLLAWAGAGADAAARAQRRQRVALTFGLDGAGWNEDMVLQRYELLFEAGLVPESRHPDASGLPVAGQSMRHDHRRILATGIAR | not soluble |
| LQASCSDDQEHRLGSLDFYTGVFALEKSRIAEISNRATLELQKMATSGEPMWLRSVETGREILNYDEYLKEFPQAQASSFPGRKTIEASRDAGIVFMDAHKLAQSFMDVGQWKETFACLISKAATVDVIRQGEGPSRIDGAIQLMFGEMQLLTPVVPTREVYFVRSCRQLSPEKWAIVDVSVSVEDSNTEKEASLLKCRKLPSGCIIEDTSNGHSKVTWVEHLDVSASTVQPLFRSLVNTGLAFGARHWVATLQLHCERLVFFMATNVPTKDSLGVTTLAGRKSVLKMAQRMTQSFYRAIAASSYHQWTKITTKTGQDMRVSSRKNV | soluble |
| LRKQVELLFNTRYAKAIGISEPVKVPYSKFLMHPEELFVVGLPEGISLRRPNCFGIAKLRKILEASNSIQFVIKRPELLTEGVKEP | soluble |
| LSDDRYFIFFNQPKTPEESIQLLGAQAGDTESFRVTLDRIPPQIQKLSFTATLDGAGQMSQVAPGYLRIVAGGEEVARYSFTGSEFSTERAVMLGDFYLKDVWRFAAVGQGFDGGLDALLKNFGGEVAEEEPAVPAQTQSGAAPSFAPPAFGAPAAPAPAPAPAPQPAQGFTPPPGPTPPPAPAPAPSVHAAPTIVGPLHTPPGGTVPPPGPAPYAQ | not soluble |
| LSECKTGNGKNYRGTMSKTKNGITCQKWSSTSPHRPRFSPATHPSEGLEENYCRNPDNDPQGPWCYTTDPEKRYDYCDILECEEECMH | soluble |
| LSFSSAVKNELCRVETDRSSSLFELAAAARISGLIKVVNANEINLRLVTENAAFARRIFSQIKDLYGINAEISIRRSPKLKKNIVYIIVLTSSKGLMRILEDINIKVSEKVEYIPYARCMRKKEYRKAYLRGAFLASGSMSDPEKTYHLEITCHNMALATEVSDLMDSFKLHSKVTKRKGNYVVYLKEGENIVDFLNIIGAHSALLELENIRILKEMRNNVNRIVNCETANLQKTVDASVRQVENINYIKEHLGFDKLPENLREIAKMRLAYSDATLKELGEMLNPPLGKSGVNHRLRKLDKIAESLRNMKGEL | soluble |
| LSSPQNILVCVTQQITCERLILKAAELRNELKGELFVIHVAKNEWNFLDNIKEGEALEYLFKISKSVGANLSVLKSDDIVQTIVNFAKENKITHIVMGESPNDHKENNFYNELKRLLSNVEILVIPQAGI | not soluble |
| LTCESVRSTDSPHFAMLDALYARAFPCHEQRESEAKRQALSHPRYALEAWFDEGVFVGLSGCWQFAGYGYIEHLAIDDTLRSRGYGKQLLAQILTRAPLTILEIDPLTTAIAHKRLRFYQSMGFHANPWAHHHPSYHQGIADHELLVLSYPQP | not soluble |
| LTDDPGSGFTTVWNAVVSELNGDPKVDDGPSSDANLSAPLTPQQRAWLNLVQPLTIVEGFALLSVPSSFVQNEIERHLRAPITDALSRRLGHQIQLGVRIAPPATDEADDTTVPPSENPATTSPDTTTDNDEIDDSAAARGDNQHSWPSYFTERPHNTDSATAGVTSLNRRYTFDTFVIGASNRFAHAAALAIAEAPARAYNPLFIWGESGLGKTHLLHAAGNYAQRLFPGMRVKYVSTEEFTNDFINSLRDDRKVAFKRSYRDVDVLLVDDIQFIEGKEGIQEEFFHTFNTLHNANKQIVISSDRPPKQLATLEDRLRTRFEWGLITDVQPPELETRIAILRKKAQMERLAVPDDVLELIASSIERNIRELEGALIRVTAFASLNKTPIDKALAEIVLRDLIADANTMQISAATIMAATAEYFDTTVEELRGPGKTRALAQSRQIAMYLCRELTDLSLPKIGQAFGRDHTTVMYAQRKILSEMAERREVFDHVKELTTRIRQRSKR | soluble |
| LVHLSVHNYAIVEHLDLELDRGMSVITGETGAGKSIMLDALGLTLGDRADSGVVRPGADKADILATFDLGDIPEAEAWLKERDLDNDGPCILRRVITAEGRSRSYINGSPCPQGDLKALGELLIDIHSQHEHQSLLKTDTHRRLLDEYAGATDLARQVHLAAQRWRQTRQELERL | not soluble |
| LYLKRATHRIADGIGVVKASKLMGGSIRERVTGIDVMDNFLEYANQHKERIFLYGAKQEVVEAAAKNIQRQYPGIVISGILHGYTKKKQQEIVEQINKAEPRFVFVALGSPKQEIFLEQTIDHLTANVFLDVGGTFDVLAGSVKRAPEFYINHNLEWLYRCLTMKRYDRLMQIPKYIYLTIKYRNNKSRGQ | not soluble |
| MAAAAAGAGSGPWAAQEKQFPPALLSFFIYNPRFGPREGQEENKILFYHPNEVEKNEKIRNVGLCEAIVQFTRTFSPSKPAKSLHTQKNRQFFNEPEENFWMVMVVRNPIIEKQSKDGKPVIEYQEEELLDKVYSSVLRQCYSMYKLFNGTFLKAMEDGGVKLLKERLEKFFHRYLQTLHLQSCDLLDIFGGISFFPLDKMTYLKIQSFINRMEESLNIVKYTAFLYNDQLIWSGLEQDDMRILYKYLTTSLFPRHIEPELAGRDSPIRAEMPGNLQHYGRFLTGPLNLNDPDAKCRFPKIFVNTDDTYEELHLIVYKAMSAAVCFMIDASVHPTLDFCRRLDSIVGPQLTVLASDICEQFNINKRMSGSEKEPQFKFIYFNHMNLAEKSTVHMRKTPSVSLTSVHPDLMKILGDINSDFTRVDEDEEIIVKAMSDYWVVGKKSDRRELYVILNQKNANLIEVNEEVKKLCATQFNNIFFLD | soluble |
| MAAASVKGFFQRTGISIKEYFKRMGNDYATVARETVQGCKDRPVKAGVVFSGLGFLTYAYQTNPTELEMYDYLCERRQKLVLVPNSEHNPATTKELTARDFLISQNRLHYYNLWFFSLLVASDYNDKLRIYSSQDSNLKDWPWTELWRNIVDIGALGRWHRMETAFVDYDVNTDEIDLLPDGDKN | not soluble |
| MAAATGGLTPEQIIAVDGAHLWHPYSSIGREAVSPVVAVAAHGAWLTLIRDGQPIEVLDAMSSWWTAIHGHGHPALDQALTTQLRVMNHVMFGGLTHEPAARLAKLLVDITPAGLDTVFFSDSGSVSVEVAAKMALQYWRGRGLPGKRRLMTWRGGYHGDTFLAMSICDPHGGMHSLWTDVLAAQVFAPQVPRDYDPAYSAAFEAQLAQHAGELAAVVVEPVVQGAGGMRFHDPRYLHDLRDICRRYEVLLIFDEIATGFGRTGALFAADHAGVSPDIMCVGKALTGGYLSLAATLCTADVAHTISAGAAGALMRGPTFMANPLACAVSVASVELLLGQDWRTRITELAAGLTAGLDTARALPAVTDVRVCGAIGVIECDRPVDLAVATPAALDRGVWLRPFRNLVYAMPPYICTPAEITQITSAMVEVARLVGSLP | soluble |
| MAADESYPSVKERAFFQGLPFDYAVVFDNALIDRLFSRLRQERALVEDGLLARPDHRPWRLGALITEADTLDRRLSEQIRCLSGQSLPVASIALVTATTEAREAVSLWASVTCPPNVVVTPDPRAWMAEADLDLVVVFAPGALAHPGLFAALGRALQRDGADFAVWNHLLVRRRAEAPGQDITYLRCPDPTRQPVALAHMEAAGPAWAATPRLFETIKGDLGKALIGMARHPLSIALLRGKPKVVRLNEFLGACRVDSLGTPPWPRQSALVEAYGAALEDETFRLEIDPAHPTQPIRLTPRRRAHSIDIVINFRDKPELTLAAMGSIYAQTTTARVSLFLIDNQSTPAARAAIDAEAARAPAGIAVRVLSYDRPFNHSAQTNLGAAAGNGEALVFMSNDCALVDPGALDEMAAWALAPGVGTVGVRLETAEGRLACSGICALYPDHDFHPIVAEGFDQLGAGLNRETFANTFACACLARAVFRQAGPLDAIGFPIGLNDVDYCLRLRERGLRHLYLGAFLARHQALGSRPASDDGAQSAFLRQTYGHLLFDKEYMLEYDFLRQFTAAKLRQDIRSQRDKTTTVLEHHHHHH | not soluble |
| MAAIKINKLLTIESNSSHTLLESMEQAGLEPEYNCRDGHCGACRCQLISGEVEYVGFAMAYTQGNEILPCICRAKTALEIEQVTYQLKAKRA | not soluble |
| MAAMPKPAAFWNDRFANEEYVYGEAPNRFVASAARTWLPEAGEVLLLGAGEGRNAVHLAREGHTVTAVDYAVEGLRKTERLATEAGVEVEAIQADVREWKPARAWDAVVVTFLHLPADERPGLYRLVQRCLRPGGRLVAEWFRPLEHHHHHH | not soluble |
| MAANGAKGRKVMRVLVVDNYDSFTYNLVQYLGELGAEPIVWRNDRFRLEEVEALDPDRILISPGPCTPFEAGLSVPLVQRYAPRYPILGVCLGHQAIGAAFGGKVVPAPVLMHGKVSPIHHDGTGVFRGLDSPFPATRYHSLAVVEVPEALVVNAWAEEAGGRTVMGFRHRDYPTHGVQFHPESYLTEAGKLILKNFLEDPWTR | soluble |
